Measurements taken from article PMC10421887 (Scientific Reports, 2023).

Target: T1, SARS-CoV-2 Nucleocapsid Protein with GST-tag, biotinylated (Severe acute respiratory syndrome …, UniProt P0DTC9)
T1 construct: also called NP; N-GST
Assay: ELISA; […], room temperature; […]
Details: one partner purified

B1: Fab N1G1 (Fab, V domains shown)
VH: EVQLLESGGGLVQPGGSLRLSCAASGFTFSDYYMHVRQAPGKGLEWVSEINPSSGNTDYADSVKGRFTISRDNSKNTLYLQMNSLRAEDTAVYYCAREYEEHGYYLTDYYFDYWGQGTLVTVSS
VL: EIVLTQSPGTLSLSPGERATLSCRASQSVSSSALAWYQQKPGQAPRLLIYGASSRATGVPDRFSGSGSGTDFTLTISRLEPEDFAVYYCQQMHSTPWTFGQGTKVEIK
notes: also called positive control for anti-NP1 & 2 screening
**Q.** Does B1 bind?
**A.** Result: binds
